Key:
[1] = target: MERTK (UniProt Q12866); test: phosphorylation enrichment, bacterial display (enrichment ratio); higher = better substrate or ligand; peptides without Tyr show the background
[2] = target: EPHB1 (UniProt P54762); test: as above
[3] = system: Fer (mouse); test: as above
[4] = system: AncSZ; test: as above
[5] = target: FGFR3 (UniProt P22607); test: as above
[6] = system: c-Abl (mouse); test: as above
[7] = target: Hck (UniProt P08631); test: as above
[8] = target: FGFR1 (UniProt P11362); test: as above
[9] = target: EPHB2 (UniProt P29323); test: as above
[10] = system: c-Src; test: as above
[11] = target: Jak2 (UniProt O60674); test: as above
[12] = target: Fyn (UniProt P06241); test: as above
[13] = target: Fes (UniProt P07332); test: as above
[14] = target: SHP2-C SH2; test: SH2 binding enrichment of the phosphorylated peptide, bacterial display (enrichment ratio); higher = better substrate or ligand; peptides without Tyr show the background
[15] = target: Grb2 SH2 (UniProt P62993); test: as above
[16] = target: c-Src SH2; test: as above
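Wherever SH2 binding enrichment of the phosphorylated peptide, bacterial display is given: peptide library displayed on the E. coli surface as eCPX fusions, selected cells deep-sequenced, score is each peptide's frequency after selection divided by its frequency in the input.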
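Wherever phosphorylation enrichment, bacterial display is given: 11-residue human phosphosite peptides and single-mutation variants displayed on the E. coli surface, counted by deep sequencing, each peptide's frequency after selection divided by its frequency in the unselected input library; frequency after pTyr selection over input frequency; kinase dosed for 20-30% of maximal phosphorylation in three min.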

MERTK, sequence (Q12866 whole entry, looked up): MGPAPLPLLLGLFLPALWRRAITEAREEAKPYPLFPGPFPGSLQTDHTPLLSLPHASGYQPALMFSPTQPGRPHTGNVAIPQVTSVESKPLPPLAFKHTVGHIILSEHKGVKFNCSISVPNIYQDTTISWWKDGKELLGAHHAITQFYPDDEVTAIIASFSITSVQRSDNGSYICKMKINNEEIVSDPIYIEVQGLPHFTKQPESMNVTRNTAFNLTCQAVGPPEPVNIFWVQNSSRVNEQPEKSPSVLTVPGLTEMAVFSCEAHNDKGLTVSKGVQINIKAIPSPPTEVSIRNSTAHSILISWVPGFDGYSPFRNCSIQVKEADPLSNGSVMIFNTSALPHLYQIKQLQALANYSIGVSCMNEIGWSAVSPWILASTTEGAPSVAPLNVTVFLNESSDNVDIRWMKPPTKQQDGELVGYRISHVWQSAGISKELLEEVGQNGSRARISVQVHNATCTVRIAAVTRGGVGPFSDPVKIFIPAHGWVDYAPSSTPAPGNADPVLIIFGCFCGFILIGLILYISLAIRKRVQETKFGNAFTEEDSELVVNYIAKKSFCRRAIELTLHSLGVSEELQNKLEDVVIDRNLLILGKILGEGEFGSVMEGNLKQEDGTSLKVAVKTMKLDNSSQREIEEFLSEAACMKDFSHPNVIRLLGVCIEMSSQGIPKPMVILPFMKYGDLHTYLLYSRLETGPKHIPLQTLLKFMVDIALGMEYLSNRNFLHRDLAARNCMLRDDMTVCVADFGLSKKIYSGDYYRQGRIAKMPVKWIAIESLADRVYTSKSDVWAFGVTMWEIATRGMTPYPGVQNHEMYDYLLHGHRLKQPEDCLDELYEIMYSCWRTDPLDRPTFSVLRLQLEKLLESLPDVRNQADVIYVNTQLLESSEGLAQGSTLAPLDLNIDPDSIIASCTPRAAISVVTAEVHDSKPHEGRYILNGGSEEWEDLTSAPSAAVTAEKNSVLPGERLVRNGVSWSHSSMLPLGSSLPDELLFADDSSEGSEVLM
EPHB2, sequence (P29323 whole entry, looked up): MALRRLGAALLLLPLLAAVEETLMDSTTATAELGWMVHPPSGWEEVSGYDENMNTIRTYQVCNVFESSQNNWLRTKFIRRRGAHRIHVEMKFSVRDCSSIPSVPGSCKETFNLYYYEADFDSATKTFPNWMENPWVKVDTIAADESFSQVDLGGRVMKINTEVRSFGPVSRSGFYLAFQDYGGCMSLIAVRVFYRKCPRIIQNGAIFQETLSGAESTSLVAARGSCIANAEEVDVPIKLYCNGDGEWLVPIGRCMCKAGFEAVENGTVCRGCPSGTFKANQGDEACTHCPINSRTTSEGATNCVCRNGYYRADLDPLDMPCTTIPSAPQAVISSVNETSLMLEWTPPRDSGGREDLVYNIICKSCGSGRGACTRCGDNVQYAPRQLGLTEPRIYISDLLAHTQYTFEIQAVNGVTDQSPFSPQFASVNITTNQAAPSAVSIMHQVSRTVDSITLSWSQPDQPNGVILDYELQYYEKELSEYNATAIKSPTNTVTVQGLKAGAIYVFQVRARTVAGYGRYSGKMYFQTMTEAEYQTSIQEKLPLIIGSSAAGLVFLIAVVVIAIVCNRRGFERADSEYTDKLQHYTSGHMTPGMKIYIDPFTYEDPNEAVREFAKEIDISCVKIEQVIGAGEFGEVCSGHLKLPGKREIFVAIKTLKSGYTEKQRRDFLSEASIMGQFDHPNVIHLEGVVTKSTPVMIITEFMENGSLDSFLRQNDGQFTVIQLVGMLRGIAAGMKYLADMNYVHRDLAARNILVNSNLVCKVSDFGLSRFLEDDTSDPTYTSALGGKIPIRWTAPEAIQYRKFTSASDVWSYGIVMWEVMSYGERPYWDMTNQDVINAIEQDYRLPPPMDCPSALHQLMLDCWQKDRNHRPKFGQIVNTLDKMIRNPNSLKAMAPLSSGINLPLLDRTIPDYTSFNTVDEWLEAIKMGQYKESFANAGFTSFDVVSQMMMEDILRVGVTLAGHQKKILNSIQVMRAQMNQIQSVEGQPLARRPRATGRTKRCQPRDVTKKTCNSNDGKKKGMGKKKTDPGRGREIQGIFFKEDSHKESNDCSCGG
EPHB1, sequence (P54762 whole entry, looked up): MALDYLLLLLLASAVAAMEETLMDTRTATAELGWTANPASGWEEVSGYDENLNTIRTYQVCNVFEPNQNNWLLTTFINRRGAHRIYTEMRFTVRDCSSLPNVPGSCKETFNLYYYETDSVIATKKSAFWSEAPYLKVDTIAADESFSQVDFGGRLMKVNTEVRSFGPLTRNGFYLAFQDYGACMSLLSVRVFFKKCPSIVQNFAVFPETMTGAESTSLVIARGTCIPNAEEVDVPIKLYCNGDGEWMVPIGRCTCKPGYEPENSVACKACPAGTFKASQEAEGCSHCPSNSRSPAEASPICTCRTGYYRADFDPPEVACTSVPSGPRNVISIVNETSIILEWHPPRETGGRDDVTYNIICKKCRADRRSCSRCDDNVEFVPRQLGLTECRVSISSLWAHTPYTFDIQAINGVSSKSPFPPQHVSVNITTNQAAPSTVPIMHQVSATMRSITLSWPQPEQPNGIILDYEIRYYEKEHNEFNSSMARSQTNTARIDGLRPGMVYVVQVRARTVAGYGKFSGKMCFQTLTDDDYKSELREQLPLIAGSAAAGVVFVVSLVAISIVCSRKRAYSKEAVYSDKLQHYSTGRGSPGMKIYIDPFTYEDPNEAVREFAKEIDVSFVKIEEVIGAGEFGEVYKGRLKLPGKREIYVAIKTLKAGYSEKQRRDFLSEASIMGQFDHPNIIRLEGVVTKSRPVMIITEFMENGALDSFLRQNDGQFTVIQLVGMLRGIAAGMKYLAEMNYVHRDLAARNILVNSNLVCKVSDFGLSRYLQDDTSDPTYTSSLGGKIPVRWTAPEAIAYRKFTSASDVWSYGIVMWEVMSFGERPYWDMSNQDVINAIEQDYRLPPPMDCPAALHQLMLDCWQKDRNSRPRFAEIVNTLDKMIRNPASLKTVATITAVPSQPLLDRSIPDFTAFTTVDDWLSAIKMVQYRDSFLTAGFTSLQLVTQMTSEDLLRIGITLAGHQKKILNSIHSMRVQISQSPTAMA
Hck, sequence (P08631 whole entry, looked up): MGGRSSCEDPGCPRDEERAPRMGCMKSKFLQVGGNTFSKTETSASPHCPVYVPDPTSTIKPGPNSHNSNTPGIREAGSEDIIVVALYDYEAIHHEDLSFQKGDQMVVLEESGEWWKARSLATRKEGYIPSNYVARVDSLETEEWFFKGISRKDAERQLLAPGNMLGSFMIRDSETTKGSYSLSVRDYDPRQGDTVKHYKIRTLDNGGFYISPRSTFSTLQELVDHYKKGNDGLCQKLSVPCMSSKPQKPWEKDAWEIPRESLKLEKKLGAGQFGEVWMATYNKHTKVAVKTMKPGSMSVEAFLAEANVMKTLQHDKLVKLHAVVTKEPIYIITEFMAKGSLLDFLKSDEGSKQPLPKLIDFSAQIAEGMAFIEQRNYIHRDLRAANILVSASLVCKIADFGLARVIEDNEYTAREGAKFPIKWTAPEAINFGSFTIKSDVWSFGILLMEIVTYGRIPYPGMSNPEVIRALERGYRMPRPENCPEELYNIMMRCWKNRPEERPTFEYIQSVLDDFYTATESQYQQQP
Fyn, sequence (P06241 whole entry, looked up): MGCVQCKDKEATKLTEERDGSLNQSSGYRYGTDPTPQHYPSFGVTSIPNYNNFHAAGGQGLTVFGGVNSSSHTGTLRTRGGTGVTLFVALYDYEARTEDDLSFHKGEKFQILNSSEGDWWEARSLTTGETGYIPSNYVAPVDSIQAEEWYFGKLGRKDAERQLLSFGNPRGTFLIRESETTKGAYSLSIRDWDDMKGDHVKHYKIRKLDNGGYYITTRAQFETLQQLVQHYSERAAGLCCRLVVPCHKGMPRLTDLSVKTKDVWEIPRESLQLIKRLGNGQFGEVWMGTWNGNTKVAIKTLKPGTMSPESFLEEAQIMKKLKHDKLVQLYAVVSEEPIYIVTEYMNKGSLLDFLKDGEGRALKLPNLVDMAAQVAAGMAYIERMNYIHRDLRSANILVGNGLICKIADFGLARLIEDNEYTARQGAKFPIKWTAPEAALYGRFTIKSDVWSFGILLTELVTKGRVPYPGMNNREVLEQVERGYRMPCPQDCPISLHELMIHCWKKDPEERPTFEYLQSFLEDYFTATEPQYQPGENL
Fes, sequence (P07332 whole entry, looked up): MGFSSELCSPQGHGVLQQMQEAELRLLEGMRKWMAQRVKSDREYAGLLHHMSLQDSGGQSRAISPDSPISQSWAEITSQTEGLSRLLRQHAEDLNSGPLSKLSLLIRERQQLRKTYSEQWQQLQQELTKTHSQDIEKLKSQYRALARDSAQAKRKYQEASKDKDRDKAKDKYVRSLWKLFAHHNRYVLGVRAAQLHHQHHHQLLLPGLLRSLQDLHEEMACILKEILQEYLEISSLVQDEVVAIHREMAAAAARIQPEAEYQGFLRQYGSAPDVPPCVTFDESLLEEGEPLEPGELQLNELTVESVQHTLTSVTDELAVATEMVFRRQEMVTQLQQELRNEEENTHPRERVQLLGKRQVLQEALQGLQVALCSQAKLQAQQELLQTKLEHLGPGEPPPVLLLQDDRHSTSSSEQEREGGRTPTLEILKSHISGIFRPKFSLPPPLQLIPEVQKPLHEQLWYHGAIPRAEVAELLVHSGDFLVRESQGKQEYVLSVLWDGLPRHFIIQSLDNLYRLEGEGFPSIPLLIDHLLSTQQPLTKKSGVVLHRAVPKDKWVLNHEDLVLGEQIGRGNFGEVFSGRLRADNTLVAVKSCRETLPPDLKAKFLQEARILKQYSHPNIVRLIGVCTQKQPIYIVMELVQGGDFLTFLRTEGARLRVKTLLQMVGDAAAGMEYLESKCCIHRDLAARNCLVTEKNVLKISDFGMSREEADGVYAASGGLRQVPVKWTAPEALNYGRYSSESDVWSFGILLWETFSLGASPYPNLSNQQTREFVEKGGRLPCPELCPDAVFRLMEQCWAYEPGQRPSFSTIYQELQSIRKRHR

Row | Sequence | SH2 binding enrichment [14] | SH2 binding enrichment [15] | SH2 binding enrichment [16] | phosphorylation enrichment [1] | phosphorylation enrichment [2] | phosphorylation enrichment [3] | phosphorylation enrichment [4] | phosphorylation enrichment [5] | phosphorylation enrichment [6] | phosphorylation enrichment [7] | phosphorylation enrichment [8] | phosphorylation enrichment [9] | phosphorylation enrichment [10] | phosphorylation enrichment [11] | phosphorylation enrichment [12] | phosphorylation enrichment [13]
1 | ASYGPNTRVQS [FOXL2_Y258_Y258N] | 0.582 | 0.872 | 0.543 | 0.435 | 0.474 | 0.448 | 0.537 | 0.407 | 0.559 | 0.454 | 0.444 | 0.407 | 0.478 | 0.515 | 0.41 | 0.596
2 | AKAEICEMRPL [COX10_Y97_Y97C] | 0.798 | 1.01 | 0.679 | 0.437 | 0.469 | 0.602 | 0.709 | 0.477 | 0.738 | 0.608 | 0.593 | 0.516 | 0.533 | 0.716 | 0.389 | 0.921
3 | QVMDGYPMPIG [MMP14_Y353] | 0.423 | 0.675 | 0.572 | 0.906 | 0.673 | 0.53 | 0.861 | 0.629 | 1.03 | 0.601 | 0.529 | 0.511 | 0.517 | 0.987 | 0.564 | 0.964
4 | WQQQSYLDYGI [CTNNB1_Y30_S33Y] | 0.648 | 0.818 | 0.511 | 0.426 | 0.808 | 0.453 | 1.11 | 0.827 | 0.711 | 0.615 | 0.91 | 1.07 | 0.743 | 0.842 | 0.604 | 1.03
5 | LRYEVYGGENE [STOX1_Y610] | 0.56 | 0.677 | 1.64 | 0.499 | 0.765 | 0.623 | 1.33 | 0.692 | 0.775 | 0.828 | 0.631 | 0.729 | 0.77 | 1.09 | 0.615 | 1.25
6 | EVKEAYMGNVL [ACAT1_Y90] | 0.699 | 0.881 | 0.542 | 0.444 | 0.341 | 0.528 | 0.804 | 0.505 | 0.506 | 0.42 | 0.596 | 0.593 | 0.402 | 0.626 | 0.474 | 0.848
7 | GGYNNYGYGND [HNRNPH3_Y159] | 0.571 | 1.22 | 0.934 | 0.565 | 1.92 | 0.672 | 0.802 | 0.688 | 1.24 | 0.556 | 0.66 | 3.79 | 0.456 | 0.808 | 0.805 | 0.849
8 | SLQFEYVHFGG [CDC14A_Y591_S589F_YF] | 0.925 | 1.08 | 0.643 | 0.426 | 0.612 | 0.367 | 1.25 | 1.33 | 0.781 | 0.557 | 1.47 | 0.682 | 0.604 | 1.12 | 0.548 | 1.29
9 | IHRWVYPLTPE [EIF2B5_Y319_R315H] | 1.29 | 1.25 | 1.06 | 0.487 | 0.525 | 0.405 | 1.03 | 0.698 | 0.621 | 0.487 | 0.488 | 0.503 | 0.446 | 0.885 | 0.511 | 0.918

Now from value to sequence, other results behind:

Row | SH2 binding enrichment [14] | SH2 binding enrichment [15] | SH2 binding enrichment [16] | Sequence | phosphorylation enrichment [1] | phosphorylation enrichment [2] | phosphorylation enrichment [3] | phosphorylation enrichment [4] | phosphorylation enrichment [5] | phosphorylation enrichment [6] | phosphorylation enrichment [7] | phosphorylation enrichment [8] | phosphorylation enrichment [9] | phosphorylation enrichment [10] | phosphorylation enrichment [11] | phosphorylation enrichment [12] | phosphorylation enrichment [13]
10 | 0.483 | 0.819 | 1.25 | AHPIIYDIIEA [PYKtide_D_2014] | 9.44 | 12.7 | 11.9 | 1.41 | 0.794 | 5.89 | 8.25 | 0.699 | 10.7 | 6.44 | 0.949 | 7.74 | 2.13
11 | 0.528 | 0.693 | 0.454 | VNFQPYRKHKF [TEX37_Y28_D24N_YF] | 0.43 | 0.34 | 0.373 | 0.546 | 0.371 | 0.542 | 0.459 | 0.365 | 0.386 | 0.431 | 0.408 | 0.439 | 0.545
12 | 1.72 | 1.39 | 1.04 | PGGNIYISPLK [RB1_Y805] | 0.685 | 0.4 | 0.804 | 0.902 | 0.526 | 1.75 | 2.65 | 0.545 | 0.571 | 0.757 | 0.529 | 0.804 | 0.58
13 | 0.7 | 0.921 | 0.523 | KNRDVSSSDYF [USP24_Y2134_Y2134S] | 0.442 | 0.476 | 0.363 | 0.921 | 0.521 | 0.61 | 0.402 | 0.523 | 0.447 | 0.543 | 0.578 | 0.476 | 0.653
14 | 0.67 | 1 | 0.515 | MLNTNYHLPPS [MT-ATP8_Y33] | 0.757 | 0.617 | 0.327 | 0.705 | 2.43 | 0.556 | 0.297 | 3.4 | 0.514 | 0.354 | 0.502 | 0.384 | 0.526
15 | 0.693 | 0.991 | 5.24 | DPAFGYEDFTR [SESN2_Y323_T320A] | 0.445 | 0.455 | 0.457 | 1.08 | 0.775 | 0.764 | 0.594 | 0.569 | 0.577 | 0.59 | 0.987 | 0.533 | 1.21
16 | 0.632 | 0.688 | 0.559 | EHIEFYELDKK [PMM2_Y145_R141H] | 0.514 | 0.4 | 0.456 | 1.01 | 0.571 | 0.588 | 0.445 | 0.487 | 0.492 | 1.11 | 0.746 | 0.566 | 1.1
17 | 0.612 | 1.01 | 0.446 | EAVKNYTEKRG [PBRM1_Y672_D674E] | 0.384 | 0.318 | 0.564 | 0.626 | 0.449 | 0.433 | 0.388 | 0.394 | 0.344 | 0.335 | 0.478 | 0.328 | 0.514

From the supplement of paper PMC10065799, “High-throughput profiling of sequence recognition by tyrosine kinases and SH2 domains using bacterial peptide display” (eLife, 2023)
